Values quoted from earlier work as cited in article PMC8036930.

Molecular target: albumin (Rattus norvegicus) (UniProt P02770)
UniProt P02770, sequence (P02770 25-608): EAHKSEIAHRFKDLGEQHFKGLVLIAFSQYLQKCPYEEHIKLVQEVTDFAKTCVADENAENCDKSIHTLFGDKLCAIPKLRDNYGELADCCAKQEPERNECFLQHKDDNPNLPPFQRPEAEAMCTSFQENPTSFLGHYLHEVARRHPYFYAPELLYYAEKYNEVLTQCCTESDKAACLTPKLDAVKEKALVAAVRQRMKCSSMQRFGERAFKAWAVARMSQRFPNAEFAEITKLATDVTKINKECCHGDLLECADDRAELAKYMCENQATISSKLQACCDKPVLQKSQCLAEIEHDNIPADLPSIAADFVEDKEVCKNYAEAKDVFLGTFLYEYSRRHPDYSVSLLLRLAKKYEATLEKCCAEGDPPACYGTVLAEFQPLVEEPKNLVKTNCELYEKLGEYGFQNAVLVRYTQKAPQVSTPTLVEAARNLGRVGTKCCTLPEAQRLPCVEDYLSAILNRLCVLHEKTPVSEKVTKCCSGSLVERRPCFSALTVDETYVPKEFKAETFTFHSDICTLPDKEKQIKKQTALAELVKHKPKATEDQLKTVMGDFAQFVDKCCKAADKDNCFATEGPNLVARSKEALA

cubilin (from UniProt O70244)
Kd: 0.63 µM
